Reference: patent US20030229922A1, “Materials and methods for the modification of plant cell wall polysaccharides” (GENESIS RESEARCH AND DEVELOPMENT CORPORATION LTD., priority 1998, published 2003)

How the values were obtained:
[1] = tested on: T1, O=c1ccn([C@@H]2O[C@H](COP(=O)(O)OP(=O)(O)O)[C@@H](O)[C@H]2O)c(=O)[nH]1; assay: SUS (sucrose synthase) enzyme assay (purified recombinant protein); type: biochemical, Eucalyptus grandis; conditions: other: E. grandis SUS; SEM 0.003
T1 construct: wild type
Source text: (§1) Sense constructs containing sequences including the coding regions for UGP (SEQ ID NO: 79) and SUS (SEQ ID NO: 105) from Eucalyptus grandis, and UGP (SEQ ID NO: 80) from Pinus radiata were inserted into the expression vector pET16b (Clontech Laboratories Inc, Palo Alto, Calif.). The resulting constructs were transformed into E. coli XL1-Blue (Stratagene) and induced to produce recombinant protein by the addition of IPTG. Purified proteins were obtained using Ni^2+ column chromatography (Janknecht et al., Proc. Natl. Acad. Sci. USA, 88:8972-8976, 1991).
(§2) Enzyme assays for SUS (sucrose synthase) were performed using the methods described by Sebkova et al. Plant Physiol., 108:75-83, 1995. […] The KM^Sucrose of E. grandis is compared with the data reported by Delmer, J. Biol. Chem. 247:3822-3828, 1972 and Nakai et al., Biosci. Biotech. Biochem. 61:1500-1503, 1997.

[2] = tested on: T2, OC[C@H]1O[C@@](CO)(O[C@H]2O[C@H](CO)[C@@H](O)[C@H](O)[C@H]2O)[C@@H](O)[C@@H]1O; assay: as above; type: biochemical, Eucalyptus grandis; conditions: other: E. grandis SUS; SEM 0.371
T2 construct: wild type
Source text: as §1, §2

Chain of Eucalyptus grandis SUS (sucrose synthase), SEQ ID NO: 105 (DNA; protein SEQ ID NO: 106) (Eucalyptus grandis) (chain, as listed by the source): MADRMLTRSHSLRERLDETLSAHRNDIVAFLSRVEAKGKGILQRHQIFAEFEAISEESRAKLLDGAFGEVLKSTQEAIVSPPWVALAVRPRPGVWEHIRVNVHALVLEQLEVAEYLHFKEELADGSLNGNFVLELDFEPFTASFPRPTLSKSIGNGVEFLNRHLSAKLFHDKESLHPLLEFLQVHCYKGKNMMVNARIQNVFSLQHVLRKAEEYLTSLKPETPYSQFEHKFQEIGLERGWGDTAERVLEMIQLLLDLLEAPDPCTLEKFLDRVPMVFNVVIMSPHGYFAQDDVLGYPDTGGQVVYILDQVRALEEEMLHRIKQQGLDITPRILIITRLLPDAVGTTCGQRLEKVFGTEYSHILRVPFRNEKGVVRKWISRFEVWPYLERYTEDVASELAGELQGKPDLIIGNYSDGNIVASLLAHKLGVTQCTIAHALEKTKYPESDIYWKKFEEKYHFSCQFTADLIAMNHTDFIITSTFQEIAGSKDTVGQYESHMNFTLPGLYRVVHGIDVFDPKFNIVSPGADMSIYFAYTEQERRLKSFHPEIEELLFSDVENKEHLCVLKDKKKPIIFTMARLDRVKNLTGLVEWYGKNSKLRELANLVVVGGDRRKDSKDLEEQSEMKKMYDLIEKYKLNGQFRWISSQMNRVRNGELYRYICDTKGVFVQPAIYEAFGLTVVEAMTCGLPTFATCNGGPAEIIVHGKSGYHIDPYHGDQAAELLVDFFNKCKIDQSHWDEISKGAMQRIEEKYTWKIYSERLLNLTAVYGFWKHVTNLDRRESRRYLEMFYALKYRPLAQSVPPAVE

## Eucalyptus grandis SUS (sucrose synthase), SEQ ID NO: 105 (DNA; protein SEQ ID NO: 106) (Eucalyptus grandis)
[1]
  Km: 28 µM
[2]
  Km: 1650 µM
